Assay results as given in US20240158479A1.

What follows are substances tested against Omicron BQ.1.1 spike on pseudovirus (SARS-CoV-2) (assay: cell-based or functional assay).
Bamlanivimab (antibody) was tested, and the IC50, pseudovirus neutralization was > 5 µg/mL.
Bebtelovimab (antibody) was tested, and the IC50, pseudovirus neutralization was > 5 µg/mL.
With Casirivimab (antibody) the IC50, pseudovirus neutralization was > 5 µg/mL.
With Cilgavimab (antibody) the IC50, pseudovirus neutralization was > 5 µg/mL.
With Etesevimab (antibody) the IC50, pseudovirus neutralization was > 5 µg/mL.
With Imdevimab (antibody) the IC50, pseudovirus neutralization was > 5 µg/mL.
In the case of Tixagevimab (antibody), the IC50, pseudovirus neutralization is reported as > 5 µg/mL.

These substances were tested against Beta spike (B.1.351) on pseudovirus (SARS-CoV-2) (assay: cell-based or functional assay).
Work on Bamlanivimab (antibody) yielded an IC50, pseudovirus neutralization of 0.21 µg/mL.
Bebtelovimab (antibody) showed an IC50, pseudovirus neutralization of 0.0009 µg/mL.
Casirivimab (antibody) was tested, and the IC50, pseudovirus neutralization was 0.094 µg/mL.
Cilgavimab (antibody) showed an IC50, pseudovirus neutralization of 0.003 µg/mL.
For Etesevimab (antibody), the IC50, pseudovirus neutralization was > 5 µg/mL.
Work on Imdevimab (antibody) yielded an IC50, pseudovirus neutralization of 0.0028 µg/mL.
With Tixagevimab (antibody) the IC50, pseudovirus neutralization was 0.0054 µg/mL.

What follows are substances tested against Omicron BA.4/5 spike on pseudovirus (SARS-CoV-2) (assay: cell-based or functional assay).
Bamlanivimab (antibody) was tested, and the IC50, pseudovirus neutralization was > 5 µg/mL.
In the case of Bebtelovimab (antibody), the IC50, pseudovirus neutralization is reported as 0.0014 µg/mL.
Casirivimab (antibody) was tested, and the IC50, pseudovirus neutralization was > 5 µg/mL.
Cilgavimab (antibody) gave an IC50, pseudovirus neutralization of 0.018 µg/mL.
For Etesevimab (antibody), the IC50, pseudovirus neutralization was > 5 µg/mL.
Substance Imdevimab (antibody) has an IC50, pseudovirus neutralization of 0.32 µg/mL.
For Tixagevimab (antibody), the IC50, pseudovirus neutralization was > 5 µg/mL.

These substances were tested against Gamma spike (P.1) on pseudovirus (SARS-CoV-2) (assay: cell-based or functional assay).
Substance Bamlanivimab (antibody) has an IC50, pseudovirus neutralization of 1.4 µg/mL.
For Bebtelovimab (antibody), the IC50, pseudovirus neutralization was 0.0017 µg/mL.
Work on Casirivimab (antibody) yielded an IC50, pseudovirus neutralization of 0.18 µg/mL.
In the case of Cilgavimab (antibody), the IC50, pseudovirus neutralization is reported as 0.005 µg/mL.
Etesevimab (antibody) was tested, and the IC50, pseudovirus neutralization was > 5 µg/mL.
Substance Imdevimab (antibody) has an IC50, pseudovirus neutralization of 0.0019 µg/mL.
Substance Tixagevimab (antibody) has an IC50, pseudovirus neutralization of 0.006 µg/mL.

These substances were tested against Alpha spike (B.1.1.7) on pseudovirus (SARS-CoV-2) (assay: cell-based or functional assay).
Work on Bamlanivimab (antibody) yielded an IC50, pseudovirus neutralization of 0.0034 µg/mL.
Bebtelovimab (antibody) gave an IC50, pseudovirus neutralization of 0.002 µg/mL.
Work on Casirivimab (antibody) yielded an IC50, pseudovirus neutralization of 0.0052 µg/mL.
Work on Cilgavimab (antibody) yielded an IC50, pseudovirus neutralization of 0.01 µg/mL.
For Etesevimab (antibody), the IC50, pseudovirus neutralization was 0.1 µg/mL.
Imdevimab (antibody) gave an IC50, pseudovirus neutralization of 0.0028 µg/mL.
Substance Tixagevimab (antibody) has an IC50, pseudovirus neutralization of 0.0017 µg/mL.

The substances below were run against Omicron BA.4.6 spike on pseudovirus (SARS-CoV-2) (assay: cell-based or functional assay).
In the case of Bamlanivimab (antibody), the IC50, pseudovirus neutralization is reported as > 5 µg/mL.
With Bebtelovimab (antibody) the IC50, pseudovirus neutralization was 0.0013 µg/mL.
For Casirivimab (antibody), the IC50, pseudovirus neutralization was > 5 µg/mL.
Cilgavimab (antibody) was tested, and the IC50, pseudovirus neutralization was > 5 µg/mL.
In the case of Etesevimab (antibody), the IC50, pseudovirus neutralization is reported as > 5 µg/mL.
With Imdevimab (antibody) the IC50, pseudovirus neutralization was 0.18 µg/mL.
With Tixagevimab (antibody) the IC50, pseudovirus neutralization was > 5 µg/mL.

The substances below were run against Omicron BA.2.12.1 spike on pseudovirus (SARS-CoV-2) (assay: cell-based or functional assay).
In the case of Bamlanivimab (antibody), the IC50, pseudovirus neutralization is reported as > 5 µg/mL.
Substance Bebtelovimab (antibody) has an IC50, pseudovirus neutralization of 0.0023 µg/mL.
Casirivimab (antibody) was tested, and the IC50, pseudovirus neutralization was > 5 µg/mL.
Cilgavimab (antibody) gave an IC50, pseudovirus neutralization of 0.019 µg/mL.
In the case of Etesevimab (antibody), the IC50, pseudovirus neutralization is reported as > 5 µg/mL.
Substance Imdevimab (antibody) has an IC50, pseudovirus neutralization of 0.1 µg/mL.
Tixagevimab (antibody) gave an IC50, pseudovirus neutralization of 0.56 µg/mL.

What follows are substances tested against Omicron BA.1 spike on pseudovirus (SARS-CoV-2) (assay: cell-based or functional assay).
For Bamlanivimab (antibody), the IC50, pseudovirus neutralization was > 5 µg/mL.
For Bebtelovimab (antibody), the IC50, pseudovirus neutralization was 0.0023 µg/mL.
Casirivimab (antibody) was tested, and the IC50, pseudovirus neutralization was > 5 µg/mL.
Cilgavimab (antibody) showed an IC50, pseudovirus neutralization of 0.21 µg/mL.
Etesevimab (antibody) was tested, and the IC50, pseudovirus neutralization was > 5 µg/mL.
In the case of Imdevimab (antibody), the IC50, pseudovirus neutralization is reported as > 5 µg/mL.
Work on Tixagevimab (antibody) yielded an IC50, pseudovirus neutralization of 0.14 µg/mL.

The substances below were run against Omicron BA.2.75 spike on pseudovirus (SARS-CoV-2) (assay: cell-based or functional assay).
For Bamlanivimab (antibody), the IC50, pseudovirus neutralization was > 5 µg/mL.
Substance Bebtelovimab (antibody) has an IC50, pseudovirus neutralization of 0.0033 µg/mL.
Work on Casirivimab (antibody) yielded an IC50, pseudovirus neutralization of 0.44 µg/mL.
Work on Cilgavimab (antibody) yielded an IC50, pseudovirus neutralization of 0.055 µg/mL.
Etesevimab (antibody) was tested, and the IC50, pseudovirus neutralization was > 5 µg/mL.
With Imdevimab (antibody) the IC50, pseudovirus neutralization was > 5 µg/mL.
Substance Tixagevimab (antibody) has an IC50, pseudovirus neutralization of 0.11 µg/mL.

The substances below were run against Delta spike (B.1.617.2) on pseudovirus (SARS-CoV-2) (assay: cell-based or functional assay).
With Bamlanivimab (antibody) the IC50, pseudovirus neutralization was 0.59 µg/mL.
For Bebtelovimab (antibody), the IC50, pseudovirus neutralization was 0.0015 µg/mL.
In the case of Casirivimab (antibody), the IC50, pseudovirus neutralization is reported as 0.0027 µg/mL.
For Cilgavimab (antibody), the IC50, pseudovirus neutralization was 0.018 µg/mL.
With Etesevimab (antibody) the IC50, pseudovirus neutralization was 0.0058 µg/mL.
Imdevimab (antibody) was tested, and the IC50, pseudovirus neutralization was 0.0035 µg/mL.
Work on Tixagevimab (antibody) yielded an IC50, pseudovirus neutralization of 0.0008 µg/mL.

Each substance was assayed against Omicron BA.2 spike on pseudovirus (SARS-CoV-2) (assay: cell-based or functional assay).
In the case of Bamlanivimab (antibody), the IC50, pseudovirus neutralization is reported as > 5 µg/mL.
Bebtelovimab (antibody) showed an IC50, pseudovirus neutralization of 0.0018 µg/mL.
Casirivimab (antibody) was tested, and the IC50, pseudovirus neutralization was > 5 µg/mL.
With Cilgavimab (antibody) the IC50, pseudovirus neutralization was 0.0091 µg/mL.
For Etesevimab (antibody), the IC50, pseudovirus neutralization was > 5 µg/mL.
For Imdevimab (antibody), the IC50, pseudovirus neutralization was 0.51 µg/mL.
For Tixagevimab (antibody), the IC50, pseudovirus neutralization was > 5 µg/mL.
